Results taken from patent US7919464B2, “Use of a peptide that interacts with αvβ3 integrin of endothelial cell” (Kyungpook National University Industry-Academic Cooperation …, priority 2003, dated 2011).

Key:
[1] = tested on: β3/293 cells (HEK293 cells transfected with human β3 integrin expression vector); assay: Adhesion of β3/293 cells to βig-h3 and its inhibition; format: cell-based; conditions: plate coated with βig-h3
Procedure: (§1) To construct a human β3 integrin expression vector, RT-PCR was performed using a human placenta poly(A)^+ RNA as a template, thereby generating a 2.4-kb β3 cDNA (Chandrika, S. K. et al., J. Biol. Chem., 272:16390-16397, 1997). The amplified β3 cDNA was digested with HindIII/XbaI, and then cloned into the pcDNA3 vector (Invitrogen). The resulting vector was named “β3/pcDNA3”. Then, 1 μg of the β3/pcDNA3 vector was introduced into HEK293 cells (ATCC, catalog No. CRL 1573) using lipofectamin (Gibco). A control was introduced with a pcDNA3 vector containing no human β3 cDNA. Since all the vectors contain a G418 selection marker, the stable transfected cells were screened using 1 mg/ml of G418. The cell transfected with the β3/pcDNA3 vector was named “β3/293”, and the cell transfected with the pcDNA3 vector (control) was named “pc/293”. Each of the screened transfectants was incubated in DMEM (Dulbecco's Modified Eagle Medium) containing 10% FBS, streptomycin and penicillin. Then, cell adhesion assay was performed in the same manner as in Example 2.
In the present invention, to further confirm that βig-h3 mediates endothelial cell adhesion through the αvβ3 integrin, cell adhesion assay using antibodies that block the function of integrins was performed in the same manner as in Example 3-1. […]

[2] = tested on: pc/293 cells (HEK293 cells transfected with pcDNA3 vector); assay: Adhesion of pc/293 cells to βig-h3; format: cell-based, human; conditions: plate coated with βig-h3; control transfectant
Procedure: as §1

HUVECs cell membrane = assay: Binding of biotin-βig-h3 to HUVECs surface (Western immunoblotting); parameters: species or system human; conditions: biotin-βig-h3, 4° C. 5 hours
Procedure: To confirm that HUVECs adhesion that is mediated by βig-h3 depends on αvβ3 integrin, the present inventors tested the binding affinity of βig-h3 in the presence of an antibody that specifically blocks the function of the integrin. This binding assay was performed according to the method described by Maile, L. A., et al., J. Biol. Chem., […].
First, HUVECs were suspended in medium at a density of 1×10^5 cells/ml. 1 ml of the cell suspension was preincubated with anti-αvβ3 antibody (LM609) or anti-αvβ5 antibody (P1F6) at 37° C. for 30 minutes. Thereafter, the preincubated cells were incubated with biotinylated βig-h3 (hereinafter, referred to as “biotin-βig-h3”) in a serum-free medium containing 0.1% BSA at 4° C. for 5 hours. The biotin-βig-h3 was added at concentrations of 1×10^−10, 1×10^−9 and 5×10^−9 μm, respectively. Then, the cells were washed three times with PBS buffer (pH 7.4), and dissolved at 4° C. in ice-cold buffer A (10 mM Tris-Cl, pH 7.4, 150 mM NaCl, 1% Nonidet P-40, 1% sodium deoxycholate, 0.5% SDS, 0.02% sodium azide, 1 mM EDTA, 1 mM phenylmethylsulfonyl fluoride). The cell lysates were clarified by centrifugation at 13,000 rpm for 30 minutes at 4° C. Equal amounts of protein were then separated by SDS-PAGE, 8% gel. The amount of biotin-βig-h3 was determined by Western immuno-blotting. […]

HUVECs = HUVECs migration assay in transwell plate coated with βig-h3; format: cell-based, human; conditions: 10 μg/ml βig-h3 His-β-b coated; 6-8 hours; data not shown
Procedure: Firstly, to examine whether βig-h3 is involved in the migration of endothelial cells, the present inventors performed cell migration assay. The cell migration assay was performed in a transwell plate (8 μm pore size, Costar, Cambridge, Mass.). The undersurface of the membrane was coated with the recombinant βig-h3 His-β-b protein (10 μg/ml) prepared in Example 1 at 4° C., and then, blocked for 1 hour at room temperature with PBS buffer containing 2% BSA. Meanwhile, HUVECs were added with an anti-αvβ3 antibody (LM609) or an anti-αvβ5 antibody (P1F6) and preincubated at 37° C. for 30 minutes. A control was added with mouse IgG. Then, the HUVECs preincubated with the antibody were suspended in medium at a density of 3×10^5 cells/ml, and 0.1 ml of the cell suspension was added to the upper compartment of the filter. The cells were allowed to migrate at 37° C. for 6-8 hours.
Migration was terminated by removing the cells from the upper compartment of the filter with a cotton swab. The filters were fixed with 8% glutaraldehyde and stained with crystal violet. The extent of cell migration was determined by light microscope, and within each well, cell counting was done in nine randomly selected fields HPF (Microscopic high power fields, ×200).
Then, the present inventors examined whether the migration of endothelial cells is inhibited by the YH18 synthetic peptide. […]

B1: βig-h3: recombinant human βig-h3 protein that expresses all of four fas-1 domains; biotinylated form used in binding assay (protein)
chain: YQRKICGKSTVISYECCPGYEKVPGEKGCPAALPLSNLYETLGVVGSTTTQLYTDRTEKLRPEMEGPGSFTIFAPSNEAWASLPAEVLDSLVSNVNIELLNALRYHMVGRRVLTDELKHGMTLTSMYQNSNIQIHHYPNGIVTVNCARLLKADHHATNGVVHLIDKVISTITNNIQQIIEIEDTFETLRAAVAASGLNTMLEGNGQYTLLAPTNEAFEKIPSETLNRILGDPEALRDLLNNHILKSAMCAEAIVAGLSVETLEGTTLEVGCSGDMLTINGKAIISNKDILATNGVIHYIDELLIPDSAKTLFELAAESDVSTAIDLFRQAGLGNHLSGSERLTLLAPLNSVFKDGTPPIDAHTRNLLRNHIIKDQLASKYLYHGQTLETLGGKKLRVFVYRNSLCIENSCIAAHDKRGRYGTLFTMDRVLTPPMGTVMDVLKGDNRFSMLVAAIQSAGLTETLNREGVYTVFAPTNEAFRALPPRERSRLLGDAKELANILKYHIGDEILVSGGIGALVRLKSLQGDKLEVSLKNNVVSVNKEPVAEPDIMATNGVVHVITNVLQPPANRPQERGDELADSALEI
- adhesion of β3/293 cells to βig-h3 [1]: strongly adhered
- adhesion of pc/293 cells to βig-h3 [2]: not adhered
- binding of βig-h3 to HUVECs surface (HUVECs cell membrane): bound to HUVECs surface in a dose-dependent manner
- migration of HUVECs in transwells whose undersurface was coated with βig-h3 (HUVECs): enhanced
